# Positions count from the first letter of the chain named.
# B1: humanized antibody hIGF13_PS (antibody, V domains shown)
# VH: QVQLVQSGAEVKKPGASVKVSCKAPGYTFTSYWMHWVRQAPGQGLEWMGETNPSSSVTNYAQKFQGRVTLTVDTSTSTAYMELSSLRSEDTATYYCTIGRGRGFAYWGQGTLVTVSS
# VL: DIQMTQSPSSLSASVGDRVTITCRASQNINFWLSWYQQKPGKVPKLLIYKASNLHTGVPSRFSGSGSGTDFTLTISSLQPEDVATYYCLQGQSYPYTFGGGTKLEIK
# B2: humanized antibody hIGF25_PS (antibody, V domains shown)
# VH: B1 VH with T93V
# VL: B1 VL
# B3: IGF11-16 with alanine substitution of W at position 32 (CDR-L1) (antibody, V domains shown)
# VH: QIQLQQPGAELVKPGASVKLSCKAPGYTFTSYWMHWVKQRPGQGLEWIGETNPSNSVTNYNEKFKSKATLTVDKSSSTAYMQLSSLTSEDSAVYYCTIGRGRGFAYWGQGTLVTVSA
# VL: B1 VL with T5N, V15L, R18T, V19I, W32A, Y36C, K42N, V43I, V83I
# B4: IGF11-16 with alanine substitution of E at position 50 (CDR-H2) (antibody, mouse IgG1, V domains shown)
# VH: B3 VH with E50A
# VL: B1 VL with T5N, V15L, R18T, V19I, Y36C, K42N, V43I, V83I
# B5: IGF11-16 with alanine substitution of N at position 59 (CDR-H2) (antibody, mouse IgG1, V domains shown)
# VH: B3 VH with N59A
# VL: B1 VL with T5N, V15L, R18T, V19I, Y36C, K42N, V43I, V83I
# B6: IGF11-16 with alanine substitution of S at position 56 (CDR-H2) (antibody, mouse IgG1, V domains shown)
# VH: B3 VH with S56A
# VL: B1 VL with T5N, V15L, R18T, V19I, Y36C, K42N, V43I, V83I
# B7: IGF11-16 with alanine substitution of S at position 54 (CDR-H2) (antibody, mouse IgG1, V domains shown)
# VH: B3 VH with S54A
# VL: B1 VL with T5N, V15L, R18T, V19I, Y36C, K42N, V43I, V83I
# B8: IGF11-16 with alanine substitution of R at position 102 (CDR-H3) (antibody, mouse IgG1, V domains shown)
# VH: B3 VH with R102A
# VL: B1 VL with T5N, V15L, R18T, V19I, Y36C, K42N, V43I, V83I
# B9: IGF11-16 with alanine substitution of N at position 55 (CDR-H2) (antibody, mouse IgG1, V domains shown)
# VH: B3 VH with N55A
# VL: B1 VL with T5N, V15L, R18T, V19I, Y36C, K42N, V43I, V83I
# B10: IGF11-16 with alanine substitution of F at position 64 (CDR-H2) (antibody, mouse IgG1, V domains shown)
# VH: B3 VH with F64A
# VL: B1 VL with T5N, V15L, R18T, V19I, Y36C, K42N, V43I, V83I
# B11: IGF11-16 with alanine substitution of W at position 33 (CDR-H1) (antibody, mouse IgG1, V domains shown)
# VH: B3 VH with W33A
# VL: B1 VL with T5N, V15L, R18T, V19I, Y36C, K42N, V43I, V83I
# B12: IGF11-16 with alanine substitution of H at position 35 (CDR-H1) (antibody, mouse IgG1, V domains shown)
# VH: B3 VH with H35A
# VL: B1 VL with T5N, V15L, R18T, V19I, Y36C, K42N, V43I, V83I
# B13: IGF11-16 with alanine substitution of N at position 52 (CDR-H2) (antibody, mouse IgG1, V domains shown)
# VH: B3 VH with N52A
# VL: B1 VL with T5N, V15L, R18T, V19I, Y36C, K42N, V43I, V83I
# B14: mouse parent antibody IGF11-16 (antibody, mouse IgG1, kappa, V domains shown)
# VH: B3 VH
# VL: DIQMNQSPSSLSASLGDTITITCRASQNINFWLSWCQQKPGNIPKLLIYKASNLHTGVPSRFSGSGSGTDFTLTISSLQPEDIATYYCLQGQSYPYTFGGGTKLEIKR
# Biological target: recombinant human IGF-1 receptor histidine tag (305-GR-050, R&D SYSTEMS) (human) (UniProt P08069)
# Test: SPR, Biacore T200, summary sentence of Table 16
row,Kd [pM],Binder
1,< 100,B1
2,< 100,B2

# Biological target: recombinant human IGF-1 receptor histidine tag (305-GR-050, R&D SYSTEMS) (human) (UniProt P08069)
# Test: antigen ELISA, plate-coated human recombinant IGF-1R, antibody at 5 nM, relative to IGF11-16
Binding @5 nM vs IGF11-16 (% vs IGF11-16),Binding vs IGF11-16 (EC50) (% vs IGF11-16),Binder
14,–,B3
–,9,B4
–,112,B5
–,108,B6
–,97,B7
–,9,B8
–,94,B9
–,84,B10
–,9,B11
–,49,B12
–,21,B13

# Biological target: recombinant human IGF-1 receptor histidine tag (305-GR-050, R&D SYSTEMS) (human) (UniProt P08069)
# Test: SPR, Biacore T200, 40 C, IGF-1R-His captured by anti-histidine-tag antibody, antibody as analyte, single cycle kinetics, 1:1 Binding model
Kd [pM],koff [s⁻¹],kon [M⁻¹ s⁻¹],Binder
57.8,0.000158,2.85e+06,B1
51,0.000135,2.87e+06,B2
31.4,7.72e-05,2.67e+06,B14
